The chains are these.
B1: BTBD1 (parent)
chain: TSAEIELPDVEPAAFLALLRFLYS

Drawing on the supplement of paper PMC10567573, this text covers protein stability index for 94 variants.
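Further: lentivirally expressed fusions sorted by FACS into six bins by GFP to DsRed ratio, PSI derived from sequencing read proportions per bin multiplied by bin number.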

The variants in this series derive from B1. Put plainly: protein stability index of a GFP-peptide fusion (GPS, HEK-293T) (PSI 1-6); higher = more stable. As to conditions: c terminus: a fixed tail appended.
For TSAEIELPDVEPAAHLALLRFLYS [F15H], the protein stability index turned out to be 1.67.

TSAEIELPDVEPAACLALLRFLYS [F15C]: the protein stability index is 2.3. Then TSAEIELPDVEPAASLALLRFLYS [F15S], with 2.04; and TSAEIELPDVEPAAKLALLRFLYS [F15K], with 1.71; and TSAEIELPDVEPAAYLALLRFLYS [F15Y], with 2.56. Regarding TSAEIELPDVEPAALLALLRFLYS [F15L], the protein stability index came to 1.31. Then TSAEIELPDVEPAARLALLRFLYS [F15R], with 2.2.

For TSAEIELPDVEPAAPLALLRFLYS [F15P], the protein stability index turned out to be 2.6. Then TSAEIEIPDVEPAAFLALLRFLYS [L7I], with 1.93; and TSAEIEEPDVEPAAFLALLRFLYS [L7E], with 1.63; and TSAEIEGPDVEPAAFLALLRFLYS [L7G], with 1.89. Then TSAEIENPDVEPAAFLALLRFLYS [L7N], with 1.9; and TSAEMELPDVEPAAFLALLRFLYS [I5M], with 1.89; and TSAESELPDVEPAAFLALLRFLYS [I5S], with 1.94. As to TSAEAELPDVEPAAFLALLRFLYS [I5A], the protein stability index turned out to be 2.06. Then TSAEEELPDVEPAAFLALLRFLYS [I5E], with 2.03; and TSAEHELPDVEPAAFLALLRFLYS [I5H], with 1.93. Then TSAEGELPDVEPAAFLALLRFLYS [I5G], with 2.55. Then TSAEKELPDVEPAAFLALLRFLYS [I5K], with 2.94; and TSAENELPDVEPAAFLALLRFLYS [I5N], with 2.14; and TSAEIELPRVEPAAFLALLRFLYS [D9R], with 2.24.

Turning to TSAEIELPMVEPAAFLALLRFLYS [D9M], the protein stability index is 2.11. Take TSAEIELPNVEPAAFLALLRFLYS [D9N]: the protein stability index was 2. As for TSAEIELPTVEPAAFLALLRFLYS [D9T], the protein stability index was 2.55.

Take TSAEIELPAVEPAAFLALLRFLYS [D9A]: the protein stability index worked out at 1.84. Then TSAEIELPDVEPAAFLALLRFLYN [S24N], with 1.78; and TSAEIELPDVEPAAFLALLRFLYH [S24H], with 1.72. TSAEIELPDVEPAAFLALLRFLYT [S24T]: the protein stability index was found to be 1.97. In the case of TSAEIELPDVEPAAFLALLRFLYG [S24G] it was 2.86.

For the variant TSAEIELPDVEPAAFLALLRFLYR [S24R], the protein stability index came to 2.44.

In the case of TSAEIELPDVEPAAFLALLRFLYV [S24V], the protein stability index turned out to be 2.1. Consider TSAEIELPDVEPAAFLALLRFLYC [S24C], for which the protein stability index worked out at 2.12. Then TSAEIELPDVEPAAFLALLRFLYA [S24A], with 2.19; and TSAEIELPDVEPAAFLALLRFLYL [S24L], with 2.39. As for TSAEIELPDVEPAAFLALLRILYS [F21I], the protein stability index is 2.25. On to TSAEIELPDVEPAAFLALLRYLYS [F21Y], for which the protein stability index turned out to be 1.61. Then TSAEIELPDVEPAAFLALLRKLYS [F21K], with 1.78; and TSAEIELPDVEPAAFLALLRELYS [F21E], with 1.82. Turning to TSAEIELPDVEPAAFLALLRMLYS [F21M], the protein stability index turned out to be 1.94. In the case of TSAEIELPDVEPAAFLALLRQLYS [F21Q], the protein stability index was determined as 1.99. Then TSAEIELPDVEPAAFLALLRSLYS [F21S], with 1.97. In the case of TSAEIELPDVEPAAFLALLRPLYS [F21P] it was 1.8. For the variant TSAEIELPDVEPAAFLALLRNLYS [F21N], the protein stability index was determined as 1.69. Regarding TSAEIELPDVEPAAFLALLRLLYS [F21L], the protein stability index was found to be 2.01. In the case of TSAEIELPDVEPAAFLALLRVLYS [F21V], the protein stability index turned out to be 2.01. With TSAEIELPDVEPWAFLALLRFLYS [A13W], the protein stability index stood at 2.18. In the case of TSAEIELPDVEPEAFLALLRFLYS [A13E] it was 1.85; in that of TSAEIELPDVEPSAFLALLRFLYS [A13S], 2.01; in that of TSAEIELPDVEPMAFLALLRFLYS [A13M], 2.02. In the case of TSAEIELPDVEPGAFLALLRFLYS [A13G] it was 1.77; in that of TSAEIELPDVEPHAFLALLRFLYS [A13H], 2.16; in that of TSAEIELPDVEPVAFLALLRFLYS [A13V], 2.02.

In the case of TSATIELPDVEPAAFLALLRFLYS [E4T], the protein stability index is 1.73. In the case of TSAWIELPDVEPAAFLALLRFLYS [E4W] it was 1.88; in that of TSADIELPDVEPAAFLALLRFLYS [E4D], 1.66. TSAHIELPDVEPAAFLALLRFLYS [E4H]: the protein stability index worked out at 1.56.

As for TSAYIELPDVEPAAFLALLRFLYS [E4Y], the protein stability index was determined as 1.68. Turning to TSANIELPDVEPAAFLALLRFLYS [E4N], the protein stability index was found to be 1.44. Then TSAGIELPDVEPAAFLALLRFLYS [E4G], with 2.07; and MSAEIELPDVEPAAFLALLRFLYS [T1M], with 2.46; and KSAEIELPDVEPAAFLALLRFLYS [T1K], with 2.68. Then ASAEIELPDVEPAAFLALLRFLYS [T1A], with 2.22; and NSAEIELPDVEPAAFLALLRFLYS [T1N], with 2.17. In the case of CSAEIELPDVEPAAFLALLRFLYS [T1C] it was 2.79; in that of PSAEIELPDVEPAAFLALLRFLYS [T1P], 1.88. In the case of FSAEIELPDVEPAAFLALLRFLYS [T1F], the protein stability index was 1.79. On to TMAEIELPDVEPAAFLALLRFLYS [S2M], for which the protein stability index was determined as 1.7.

In the case of TIAEIELPDVEPAAFLALLRFLYS [S2I], the protein stability index is 2.07. In the case of TKAEIELPDVEPAAFLALLRFLYS [S2K] it was 2.39.

On to TDAEIELPDVEPAAFLALLRFLYS [S2D], for which the protein stability index was determined as 1.61. Turning to TCAEIELPDVEPAAFLALLRFLYS [S2C], the protein stability index was 2.05.

Consider TVAEIELPDVEPAAFLALLRFLYS [S2V], for which the protein stability index is 1.87. Then TYAEIELPDVEPAAFLALLRFLYS [S2Y], with 2.28; and TTAEIELPDVEPAAFLALLRFLYS [S2T], with 1.74. In the case of TSYEIELPDVEPAAFLALLRFLYS [A3Y] it was 1.83; in that of TSIEIELPDVEPAAFLALLRFLYS [A3I], 2.26.

On to TSEEIELPDVEPAAFLALLRFLYS [A3E], for which the protein stability index is 1.91. In the case of TSLEIELPDVEPAAFLALLRFLYS [A3L] it was 1.53. In the case of TSWEIELPDVEPAAFLALLRFLYS [A3W] it was 1.41; in that of TSVEIELPDVEPAAFLALLRFLYS [A3V], 2.27; in that of TSDEIELPDVEPAAFLALLRFLYS [A3D], 2.12. With TSHEIELPDVEPAAFLALLRFLYS [A3H], the protein stability index worked out at 1.8. Regarding TSSEIELPDVEPAAFLALLRFLYS [A3S], the protein stability index was 1.67. Then TSCEIELPDVEPAAFLALLRFLYS [A3C], with 1.98; and TSAEIWLPDVEPAAFLALLRFLYS [E6W], with 1.85. TSAEIKLPDVEPAAFLALLRFLYS [E6K]: the protein stability index was found to be 2.13. Then TSAEILLPDVEPAAFLALLRFLYS [E6L], with 1.73; and TSAEIQLPDVEPAAFLALLRFLYS [E6Q], with 2.01; and TSAEIDLPDVEPAAFLALLRFLYS [E6D], with 2.07. For TSAEIGLPDVEPAAFLALLRFLYS [E6G], the protein stability index is 1.75. Then TSAEISLPDVEPAAFLALLRFLYS [E6S], with 2.49; and TSAEIILPDVEPAAFLALLRFLYS [E6I], with 2.82; and TSAEIELPDVEPAAFLALVRFLYS [L19V], with 1.72.

Take TSAEIELPDVEPAAFLALHRFLYS [L19H]: the protein stability index was determined as 2.05.
